# In patent US20020193304:
# Target: CD87 (UniProt Q03405)
# UniProt Q03405, sequence (Q03405 whole entry, looked up): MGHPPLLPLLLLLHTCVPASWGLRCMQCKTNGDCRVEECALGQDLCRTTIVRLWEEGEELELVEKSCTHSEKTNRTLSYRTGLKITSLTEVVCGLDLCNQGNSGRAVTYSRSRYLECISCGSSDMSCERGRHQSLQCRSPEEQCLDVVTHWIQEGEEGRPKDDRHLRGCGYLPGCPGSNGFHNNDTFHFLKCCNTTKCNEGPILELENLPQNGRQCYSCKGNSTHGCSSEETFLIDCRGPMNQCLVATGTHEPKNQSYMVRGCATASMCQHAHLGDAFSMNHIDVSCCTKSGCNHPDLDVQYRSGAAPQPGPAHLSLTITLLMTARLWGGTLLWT
substance,measurement,value
high molecular weight urokinase-type plasminogen activator (HMW-uPA),"anti-HIV activity (p17) of gel filtration fractions containing HMW-uPA (Nos. 15-18), co-culture assay","also were found to have anti-HIV activity (p17), thought that was weaker than ATF"
